Measured values reported in the nanobody polyreactivity screen of Harvey et al. (2022).

Assay: yeast display, Sf9 membrane polyspecificity reagent, FACS + sequencing; frameworks hold sequencing errors
In short: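 Nanobodies from a synthetic yeast display library (Saccharomyces cerevisiae BJ5465), induced 36–48 hours with galactose, were stained 1 hour at 4 °C with 10% biotinylated, detergent-solubilized Sf9 membrane reagent, enriched on streptavidin microbeads, then FACS-sorted. Anti-HA (expression) and streptavidin (reagent binding) fluorescence set low and high (top ~1%) gates. Polyreactivity labels come from the gate of origin. Genes were colony-PCR amplified, MiSeq 2 × 250 sequenced and filtered by CDR length.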

## QVQLVESGGGLVQAGGSLRLSCAASGSIFALNVMGWYRQAPGKEREFVAAISVRSGSTYYADSVKGRFTISRDNAKNTVYLQMNSLKPEDTAVYYCAARTSRFWRGGGLDYWGQGTQVTVSS
  polyreactivity (PSR sort gate): high polyreactivity

## QVQLVESGGGLVQAGGSLRLSCAASGSIFRFNPMGWYRQAPGKERELVAAISWSGGLTYYADSVKGRFTISRDNAKNTVSLQMNSLKPEDTAVYYCNAGRRYPLRYDYWGQGTQVTVSS
  polyreactivity (PSR sort gate): high polyreactivity

## QVQLVESGGGLDQAGGSLRLTCAASGFTFQVYAMGWYRQAPGKERELVADITSGTSTNYADSVKGRFTSSRDNAKNTVYLQMNSLKPEDTAVYYCANVYTYKSFDYWGQGTQVTVSS
  polyreactivity (PSR sort gate): low polyreactivity

## QVQLVESGGGLVQAGGSLRLSCAGSGSTFLYYAMGWYRQAPGKERELVAVITYSDGGTYYADSVKGRFTISRDNAKNTVYLEMNSLKPEDTAVYYCAKDYRAYAGHYTWTWHEYGYWGQGTQVTVSS
  polyreactivity (PSR sort gate): low polyreactivity

## QVQLVESGGGLVQAGGSLRLSCAASGSIFTYNVMGWYRQAPGKERELVAAIRTRGDRTYYADSVKGRFTISRDNAKNTVYLQMNSLKPEDTAVYYCAAAGSYYSHEYWGQGTQVTVSS
  polyreactivity (PSR sort gate): high polyreactivity

## QVHLVESGGGLVQAGGSLRLSCAASGFIFGRNAMGWYRQAPGKEREFVAALTRIGGNTYYADSVKGRFTISRDNAKNTVYLQMNSLKPEDTAVYYCAARLSYFHAYGFYWGQGTQVTVSS
  polyreactivity (PSR sort gate): high polyreactivity

## QVQLVESGGRLVQAGGSRRLSCAASGSIFYRNAKRSYRQAPGKERELVAAISGRGGSTNYADSVKGRFTISRDNAKNTVYLQMNSLKPEDTAVYYCNRYGVSNILVRGGYWGQGTQVTVSS
  polyreactivity (PSR sort gate): high polyreactivity

## QVQLVESGGGLVQAGGSLRLSCAASGFIFNYNTMGWYRQAPGKERELVAAISFSGGSTYYADSVKGRFTISRDNAKNTVYLQMNSLKPEDTAVYYCATRNGRQYSVSYRYYYWGQGTQVTVSS
  polyreactivity (PSR sort gate): low polyreactivity

## QVQLVESGGGLVQAGGSLRLICAASGNTFSVYTMGWYRQAPGKERELVAAISFRSGSTYYADSVKGRFTISRDNAKNTVYLLMNSLKPEDTAVYYCAAYVRQLQVVRGVSNYDSWGQGTQVTVSS
  polyreactivity (PSR sort gate): high polyreactivity

## HVQLVESAGGLVQAGGSLRVSCAASGRTFVENAMGWYRQAPGKERELVAAITYRGGRTFYADSVKGRFTISLDNAKNTVYLQMNSLTPEETAVYYCNAVRRTGGHGDYWGHGTQVTVSS
  polyreactivity (PSR sort gate): high polyreactivity

## QVQLVESGGGLVQAGGSLRLSCAASGFIFFPYTMGWYRQAPGKERELVAAITNGGSTSYADSVKGRFTISRDNAKNTVYLQMNSLKPEDTAVYYCAADLGRNLLHTYYYWGQGTQVTVSS
  polyreactivity (PSR sort gate): low polyreactivity

## QVQLVESGGGLVQAGGSLRLRCAASGFTFPSYPMGWYRQAPGKEREVVAAISQRGGSTYYADSEKGRFTISRDNAKHTVYLQLNSLKPEDTAVYYCAALAPRTGRPTYGYWGQGTQVTVSS
  polyreactivity (PSR sort gate): low polyreactivity

## QIQLVESVGGLVQAGGSLRLSCAASGSIFQYYAMGWYRQAPGKERELVAAISSGGSTYYADSVKGRFTISRENAKNTVYLQMNSLKPEDTAVYYCAADLQSGYTIPTSIVEYHPFDYWGQGTQGTVSS
  polyreactivity (PSR sort gate): low polyreactivity

## QVQLVESGGGLVQAGGRLRLSCAASGSIFHLYMGWYRQAPGKERELVAVINSSGDSTYYADSVKGRFTISRDNAKNTVYLQMNSLKPEDTAVYYCNARRRGPRYLYGYWGQGSQVTVSS
  polyreactivity (PSR sort gate): high polyreactivity

## QVQLVESRGGLVQAGGSLRLSCAASGRTVRRYAMGWYRQAAGKARELVASISRGSSTNYADSVKGRFTSSRDNAKNTGYLQMNSLKPEHTAVYYCAALGWSARYRYDYWGQGTQVTVSS
  polyreactivity (PSR sort gate): high polyreactivity

## QVQLVESGGGLVQAGGSLRLSCAASGSIIRGYTMGWYRQAPGKERELVADITQSTGSTYYADSVKGRFTISRDTAKNTVYFQMNSLKPEDTAVYYCAAVEGWYLFTSNYWGQGTQVNVSS
  polyreactivity (PSR sort gate): low polyreactivity

## QVQLVESGGGLVQAGGSLRLSCAASGRIFFVYAMGWYRQAPGKERELVASITGGGSTNYADSVKGRFTISRDNAKNTVYLQMNSLKPEDTAVYYCGADIHSTRVFPEYPSGYDYWGQGTQVTVSS
  polyreactivity (PSR sort gate): low polyreactivity

## QVQLVESGGGLVQAGGSLRLSCAASGLIFYGYVMGWYRQAPGKERELVAGISRNSGSTYYADSVKGRFTISRDNAKITVYLQMKSLKPEDTAVYYCDALKFEAWAGEDYWGQGTQLTVSS
  polyreactivity (PSR sort gate): low polyreactivity

## QVQLVESGGCLVQAGGSLRLSCAASGITFGRNTMGWSRQAPGKERELVAAIDSGGNTYADSVKGRFTISRDNAKNTVYLQMNSLKPEDTAVYYCAVDGGEFSSYGYWVQGTQVTVSS
  polyreactivity (PSR sort gate): low polyreactivity

## QVQLVESGGGLVQAGGSLRLSCAASGSIFVLYTIGWYRQAPGKERELVGAISYSGGSTNYADSVKGRFTISRDNAKNTVYLQMNSLKPEDTSVYYCADRASKGHKYWGQGTQVTVSS
  polyreactivity (PSR sort gate): high polyreactivity

## QVQLVESGGGLVQAGGSVRLSCAASGSIFTGYAMGWYRQAPGKERELVAAISRSSGSTYYADSVKGRFTISRDNAKNTVYLQMNSLKPEDTAVYYCNAYSKYRSGRLYWMGYWGQGTQVTVSS
  polyreactivity (PSR sort gate): high polyreactivity

## QVHLVESGGGLVQAGGSLRLSCASSGFTFRANAMGWYRPAPGKERELVAVITGSGRTYYAHSVKGRFTISRDNAKNSVYLKMNSLKPEDTAVYYCAARAAYRVSSTGYDSWGQGSQVTVSS
  polyreactivity (PSR sort gate): high polyreactivity

## QFQLVESGGGLVQAGGSLRLSCAASGSIFYTYVMGWYRQAPGKERELVAVISWSSTSTYYADSVKGRFTISRDNAKNTVYLQMNSLKPEDTAVYYCAAGVHRYRPGHGYDDGGYYWGQGTQVTVSS
  polyreactivity (PSR sort gate): low polyreactivity

## QVQLVESGGGLVQAGGSLRLSCAASGRIFAGYAMGWYRQAPGKERELVAAIRSGGSTNYADSVKGRFTISRDNAKNTVYLQMNSLKPEDTAVYYCAAETPVIPWDEMDYWGQGTQVTVSS
  polyreactivity (PSR sort gate): low polyreactivity

## QVQIVESGGRLVQAAGRLSLTCAASGSIFVWNAMGWYRQEPGKEREVVAAITNIGGRTYYADSVKGRFTISRDNAKYTVYLQMNSQKPEATAGYYCNSDLVSRLGWSTTSDSWGQGTQVTVSS
  polyreactivity (PSR sort gate): high polyreactivity

## QVQLVESGGGLVQAGGSLRLSCAASGSTIGIYAMGGYRQAPGKERELVAAISSGGSTNYGDSVKGRFTISRDNEKNTVYLQMNSLKQEDTAVYYCAVESVYEYGGYVDSAYDYWGQGTQVTVSS
  polyreactivity (PSR sort gate): low polyreactivity

## QVQLVESGGGLVQAGGSLRLSCAASGSIFHAYAMGWYRQAPGKERELVAAINRGGRTNYADSVKGRFTISRDNAKNTVYLQMNSLKPEDTAVYYCAASYRWVTDKTHYYWGQGTQVTVSS
  polyreactivity (PSR sort gate): low polyreactivity

## QVQLVESGGGLVQAGGSLRLSCAASGSTFAYYVMGWYRQAPGKERELVAAITSSGGRTYYADSVKGRFTISRDNAKNTVYLQMNSLKPEDTAVYYWAKVSQRRVDNSDYDYWGQGTQVTVSS
  polyreactivity (PSR sort gate): high polyreactivity

## QVHLVDSGRGLVQAGGSLRLSCAASGSTFAEYVMGRYRQAPGKERELVASIDSGGGTNYADSVKGRFTISRDNAKNTVYLQMNSLKPEDTAVYYCAASGRDIGGYDYWGHGTQVTVSS
  polyreactivity (PSR sort gate): low polyreactivity

## QLQLVESGGGLVQAGGSLRLSCAYYGFIFYWNAMGWYRHAPGKESQFVATITWSGGSTYYADSVTGRFTISRDNAKNTVYLQMNSLKPEDTAVYSCAVSYLSTLGRSRSDYWGQGTQVTVSS
  polyreactivity (PSR sort gate): low polyreactivity

## QVQLVESGGGLVQAGGSLRLSCAASGFIFRFYAMGWYRQAPGKERELVAGISSSGGSTYYADSLKGRFTISRDNAKTTVYLQMNSLKPEDTAVYYCNAKRSDQSSKTFNYWGQGTQVTVSS
  polyreactivity (PSR sort gate): low polyreactivity

## QVQLVESGGGLVQAGGSLRLSCAASGGTFPVYALGWYRQAPGKERELVAAISYSGVTTYYADSVKGRFTISRDNAKNTVYLQMNSLKPEDTAVYYCNADWRRWYIFSYDYWGQGTQVTVSS
  polyreactivity (PSR sort gate): low polyreactivity

## QVQLVESGGGLVQAGGSLRLSCAPSGGTFWIYAMGWYRQAPGKERELVAGITTSGATTYYADSVKGRFTISRDNAKNTVYLQMNSLKPEDTAVYYCAAVIRPRYYQVRPRYDYWGQGTQVTVSS
  polyreactivity (PSR sort gate): low polyreactivity

## QVQLVESGGGLVQAGGSLRLSCDASGRTFWRYAMGWYRQAPGKERELVATISSGGSTNYADSVKGRFTISRDNAKNTVYLQMNSLKPEDTAVYYCNAEYSYYDLLAYDYWGQGTQVTVSS
  polyreactivity (PSR sort gate): low polyreactivity

## QVQLVESGGGLVQAGGSLRLSCAASGSTFTWYTMGWYRQAPGKERELVAAISSSGGSTYYADSVKGRFTISRDNAKNTVYLQMNSLKPEDTAVYYCARRFPSPLYTRYDYWGQGTQVTVSS
  polyreactivity (PSR sort gate): high polyreactivity

## QVQLVESGGGLVQAGGSLRLTCAASGRTFYYYAMGWYRKAPGKERELVAAIDSDGSTTYADSVKGRFTISRDNAKNTVYLQINSLKPEDTAVYYCAAAFPTYRHYYWGQGTQVTVSS
  polyreactivity (PSR sort gate): low polyreactivity

## QVQLVESGGGLVQAGGSLRLSCAASGITFSYYAMGWYRQAPGKERELVAAISYTSGSTYYADSVKGRFTISRDNAKNTVYLQMNSLKPEDTAGYYCAARSRWSKQFRYDYWGQGTQVTVSS
  polyreactivity (PSR sort gate): high polyreactivity

## QVHLVESGGGLVQAGGSLRLSCAASGSTLGYYAMGWYRQAPGKERELVASIRWDTASTYYADSVKGRFTISRDNAKNTVYLQMNSLKPEDTAVYYCNAGRPRFYRCRWYYYGYGYWGQGTQVTVSS
  polyreactivity (PSR sort gate): high polyreactivity

## QVQLQESGGGLVQVGGSLRLTCAASGTIFIYGFLGWNRQAPGKERELVASINLGGITNYADSVKGRFTISRDNAKNTVYLQMISLKPEDTAVYYCAAYVVTGQNYGYWGQGTQVTVSS
  polyreactivity (PSR sort gate): low polyreactivity

## QVQLVESGGGLVQAGGSLRLSCAASGRIFSRYAMGWYRQAPVKERELVADITYNGGSTYYADSVKGRFTISRDNAKHTVYLQMNSLQPDDTAVYYCNAVEVLDEGWGFWYYYWGQATQVTVSS
  polyreactivity (PSR sort gate): high polyreactivity

## QVQLVESGGGLVQAGGSLRLSCAASGRTFSANAMGWYRQAPGKERELVATISSGGRTNYADSVKGRFTISRDNAKNTVYLQMNSLKPEDTAVYYCAKRGPYNRWYGRYDYWGQGTQVTVSS
  polyreactivity (PSR sort gate): low polyreactivity

## QVQLVESGGGLVQAGGSLRLSCAASGFIFDFYTIGWYRQAPGKEWELVAAITNGGSTYYADSVKGRFTISRVNAKNTVYLQMNSLKPEDTAVYYCAAYYRSRHHGYDSWGQGTQVTVSS
  polyreactivity (PSR sort gate): low polyreactivity

## QVQLVESGGGLVQAGGSLRLSSAASGSTFTVNGMGWYSQAPGKERELVAAIDGGDGSTYYADSVKGRFTISRDNAKNTVYLQMTSLKPEDTAVYYCAADPPGFTQYGYWGQGTQVTVSS
  polyreactivity (PSR sort gate): low polyreactivity
